Results as given in patent US20060275764.

Molecular target: Mannan-binding lectin (MBL), P11226
Sequence (P11226 21-248): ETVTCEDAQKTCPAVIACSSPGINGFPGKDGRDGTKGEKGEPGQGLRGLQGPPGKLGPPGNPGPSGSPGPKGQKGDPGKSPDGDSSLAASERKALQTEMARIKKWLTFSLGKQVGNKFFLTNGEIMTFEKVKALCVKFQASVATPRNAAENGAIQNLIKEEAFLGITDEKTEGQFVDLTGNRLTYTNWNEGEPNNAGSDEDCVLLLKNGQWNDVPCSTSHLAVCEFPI

B1: MASP-2 (MBL-associated serine protease 2), wild type, recombinant (protein)
chain: TPLGPKWPEPVFGRLASPGFPGEYANDQERRWTLTAPPGYRLRLYFTHFDLELSHLCEYDFVKLSSGAKVLATLCGQESTDTERAPGKDTFYSLGSSLDITFRSDYSNEKPFTGFEAFYAAEDIDECQVAPGEAPTCDHHCHNHLGGFYCSCRAGYVLHRNKRTCSALCSGQVFTQRSGELSSPEYPRPYPKLSSCTYSISLEEGFSVILDFVESFDVETHPETLCPYDFLKIQTDREEHGPFCGKTLPHRIETKSNTVTITFVTDESGDHTGWKIHYTSTAQPCPYPMAPPNGHVSPVQAKYILKDSFSIFCETGYELLQGHLPLKSFTAVCQKDGSWDRPMPACSIVDCGPPDDLPSGRVEYITGPGVTTYKAVIQYSCEETFYTMKVNDGKYVCEADGFWTSSKGEKSLPVCEPVCGLSARTTGGRIYGGQKAKPGDFPWQVLILGGTTAAGALLYDNWVLTAAHAVYEQKHDASALDIRMGTLKRLSPHYTQAWSEAVFIHEGYTHDAGFDNDIALIKLNNKVVINSNITPICLPRKEAESFMRTDDIGTASGWGLTQRGFLARNLMYVDIPIVDHQKCTAAYEKPPYPRGSVTANMLCAGLESGGKDSCRGDSGGALVFLDSETERWFVGGIVSWGSMNCGEAGQYGVYTKVINYIPWIENIISDF
With B1 the “MBL pathway activity (C4b deposition in mannan coated wells)” value was “Restoration of the MBL pathway was also achieved by adding recombinant MASP-2 to the patient serum”.
